In patent publication US20200199241A1 (Chugai, published 2020):

T1: FcγRIIa type H (human, UniProt P12318 36-217)
T1 construct: also called FcγRIIaH; FcγRIIH
T1 sequence: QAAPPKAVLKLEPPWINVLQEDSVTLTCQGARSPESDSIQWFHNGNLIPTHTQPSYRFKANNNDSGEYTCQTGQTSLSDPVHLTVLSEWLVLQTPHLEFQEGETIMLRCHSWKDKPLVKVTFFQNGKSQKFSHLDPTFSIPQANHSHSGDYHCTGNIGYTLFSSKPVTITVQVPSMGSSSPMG

T2: FcγRIIb (human, UniProt P31994 43-217, limits assumed)
T2 construct: also called FcgRIIb; FcγIIB
T2 sequence: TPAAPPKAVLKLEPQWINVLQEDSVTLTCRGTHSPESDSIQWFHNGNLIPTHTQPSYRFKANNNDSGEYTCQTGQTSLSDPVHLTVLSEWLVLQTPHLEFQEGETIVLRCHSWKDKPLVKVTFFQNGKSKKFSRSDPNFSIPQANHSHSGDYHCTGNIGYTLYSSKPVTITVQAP


How the values were obtained:
Assay in all cases: SPR (Biacore), bound amount, IL6R-BF648/IL6R-L = 100
[1] = molecular target: T3, FcγRIa (human, UniProt P12314 16-292, limits assumed)
T3 construct: also called FcgRIa; CD64

[2] = molecular target: T1, FcγRIIa type H
[3] = molecular target: T4, FcγRIIIa type V (human, UniProt P08637 17-208, limits assumed)
T4 construct: also called FcγRIIIaV; FcgRIIIaV

[4] = molecular target: T2, FcγRIIb

T3 sequence (P12314 16-292 limits assumed): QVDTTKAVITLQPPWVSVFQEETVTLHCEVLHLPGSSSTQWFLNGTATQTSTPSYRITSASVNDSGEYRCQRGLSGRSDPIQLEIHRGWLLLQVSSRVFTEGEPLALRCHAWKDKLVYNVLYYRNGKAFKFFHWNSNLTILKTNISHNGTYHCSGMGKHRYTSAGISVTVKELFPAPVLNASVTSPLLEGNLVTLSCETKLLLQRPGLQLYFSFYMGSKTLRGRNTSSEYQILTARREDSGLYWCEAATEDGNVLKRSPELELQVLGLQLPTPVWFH
T4 sequence (P08637 other isoform, or with tags, fused parts or gaps limits assumed): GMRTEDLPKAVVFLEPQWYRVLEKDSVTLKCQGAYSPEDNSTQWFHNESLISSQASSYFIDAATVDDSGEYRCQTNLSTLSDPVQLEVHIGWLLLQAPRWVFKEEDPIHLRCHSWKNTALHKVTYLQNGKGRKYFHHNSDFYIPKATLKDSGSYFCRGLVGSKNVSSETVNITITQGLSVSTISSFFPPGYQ

Binder | relative binding activity [1] | relative binding activity [2] | relative binding activity [3] | relative binding activity [4]
IL6R-BP150/IL6R-L (antibody, human IgG1, IgG1; Fc variant of IL6R-B3; copies: 2 + 2) heavy: QVQLQESGPGLVKPSETLSLTCAVSGHSISHDHAWSWVRQPPGEGLEWIGFISYSGITNYNPSLQGRVTISRDNSKNTLYLQMNSLRAEDTAVYYCARSLARTTAMDYWGEGTLVTVSSASTKGPSVFPLAPSSKSTSGGTAALGCLVKDYFPEPVTVSWNSGALTSGVHTFPAVLQSSGLYSLSSVVTVPSSSLGTQTYICNVNHKPSNTKVDKKVEPKSCDKTHTCPPCPAPEYLGDDSVFLFPPKPKDTLMISRTPEVTCVVVDVSHEDPEVKFNWYVDGVEVHNAKTKPREEQYNSTYRVVSVLTVLHQDWLNGKEYKCKVSNAALPRPIEKTISKAKGQPREPQVYTLPPSRDELTKNQVSLTCLVKGFYPSDIAVEWESNGQPENNYKTTPPVLDSDGSFFLYSKLTVDKSRWQQGNVFSCSVMHEALHNHYTQESLSLSP light: DIQMTQSPSSLSASVGDRVTITCRASQDISSYLNWYQQKPGKAPKLLIYYTSRLHSGVPSRFSGSGSGTDFTFTISSLQPEDIATYYCQQGNTLPYTFGQGTKVEIK | 30 % of control | 770 % of control | 204 % of control | 183 % of control
IL6R-BP179/IL6R-L (antibody, human IgG1, IgG1; Fc variant of IL6R-B3; copies: 2 + 2) heavy: QVQLQESGPGLVKPSETLSLTCAVSGHSISHDHAWSWVRQPPGEGLEWIGFISYSGITNYNPSLQGRVTISRDNSKNTLYLQMNSLRAEDTAVYYCARSLARTTAMDYWGEGTLVTVSSASTKGPSVFPLAPSSKSTSGGTAALGCLVKDYFPEPVTVSWNSGALTSGVHTFPAVLQSSGLYSLSSVVTVPSSSLGTQTYICNVNHKPSNTKVDKKVEPKSCDKTHTCPPCPAPELLGDDSVFLFPPKPKDTLMISRTPEVTCVVVDVSHEDGEVKFNWYVDGVEVHNAKTKPREEQYNSTYRVVSVLTVLHQDWLNGKEYKCKVSNAALPKPIEKTISKAKGQPREPQVYTLPPSRDELTKNQVSLTCLVKGFYPSDIAVEWESNGQPENNYKTTPPVLDSDGSFFLYSKLTVDKSRWQQGNVFSCSVMHEALHNHYTQESLSLSP light: DIQMTQSPSSLSASVGDRVTITCRASQDISSYLNWYQQKPGKAPKLLIYYTSRLHSGVPSRFSGSGSGTDFTFTISSLQPEDIATYYCQQGNTLPYTFGQGTKVEIK | 39 % of control | 226 % of control | 125 % of control | 177 % of control
IL6R-BP183/IL6R-L (antibody, human IgG1, IgG1; Fc variant of IL6R-B3; copies: 2 + 2) heavy: QVQLQESGPGLVKPSETLSLTCAVSGHSISHDHAWSWVRQPPGEGLEWIGFISYSGITNYNPSLQGRVTISRDNSKNTLYLQMNSLRAEDTAVYYCARSLARTTAMDYWGEGTLVTVSSASTKGPSVFPLAPSSKSTSGGTAALGCLVKDYFPEPVTVSWNSGALTSGVHTFPAVLQSSGLYSLSSVVTVPSSSLGTQTYICNVNHKPSNTKVDKKVEPKSCDKTHTCPPCPAPDYLGGDSVFLFPPKPKDTLMISRTPEVTCVVVDVSHEDGEVKFNWYVDGVEVHNAKTKPREEQYNSTYRVVSVLTVLHQDWLNGKEYKCKVSNAALPKPIEKTISKAKGQPREPQVYTLPPSRDELTKNQVSLTCLVKGFYPSDIAVEWESNGQPENNYKTTPPVLDSDGSFFLYSKLTVDKSRWQQGNVFSCSVMHEALHNHYTQESLSLSP light: DIQMTQSPSSLSASVGDRVTITCRASQDISSYLNWYQQKPGKAPKLLIYYTSRLHSGVPSRFSGSGSGTDFTFTISSLQPEDIATYYCQQGNTLPYTFGQGTKVEIK | 83 % of control | 191 % of control | 113 % of control | 164 % of control
IL6R-BP184/IL6R-L (antibody, human IgG1, IgG1; Fc variant of IL6R-B3; copies: 2 + 2) heavy: QVQLQESGPGLVKPSETLSLTCAVSGHSISHDHAWSWVRQPPGEGLEWIGFISYSGITNYNPSLQGRVTISRDNSKNTLYLQMNSLRAEDTAVYYCARSLARTTAMDYWGEGTLVTVSSASTKGPSVFPLAPSSKSTSGGTAALGCLVKDYFPEPVTVSWNSGALTSGVHTFPAVLQSSGLYSLSSVVTVPSSSLGTQTYICNVNHKPSNTKVDKKVEPKSCDKTHTCPPCPAPDLLGGDSVFLFPPKPKDTLMISRTPEVTCVVVDVSHEDGEVKFNWYVDGVEVHNAKTKPREEQYNSTYRVVSVLTVLHQDWLNGKEYKCKVSNKALPKPIEKTISKAKGQPREPQVYTLPPSRDELTKNQVSLTCLVKGFYPSDIAVEWESNGQPENNYKTTPPVLDSDGSFFLYSKLTVDKSRWQQGNVFSCSVMHEALHNHYTQESLSLSP light: DIQMTQSPSSLSASVGDRVTITCRASQDISSYLNWYQQKPGKAPKLLIYYTSRLHSGVPSRFSGSGSGTDFTFTISSLQPEDIATYYCQQGNTLPYTFGQGTKVEIK | 96 % of control | 131 % of control | 106 % of control | 171 % of control
IL6R-BP186/IL6R-L (antibody, human IgG1, IgG1; Fc variant of IL6R-B3; copies: 2 + 2) heavy: QVQLQESGPGLVKPSETLSLTCAVSGHSISHDHAWSWVRQPPGEGLEWIGFISYSGITNYNPSLQGRVTISRDNSKNTLYLQMNSLRAEDTAVYYCARSLARTTAMDYWGEGTLVTVSSASTKGPSVFPLAPSSKSTSGGTAALGCLVKDYFPEPVTVSWNSGALTSGVHTFPAVLQSSGLYSLSSVVTVPSSSLGTQTYICNVNHKPSNTKVDKKVEPKSCDKTHTCPPCPAPDYLGDDSVFLFPPKPKDTLMISRTPEVTCVVVDVSHEDGEVKFNWYVDGVEVHNAKTKPREEQDNSTYRVVSVLTVLHQDWLNGKEYKCKVSNAALPKPIEKTISKAKGQPREPQVYTLPPSRDELTKNQVSLTCLVKGFYPSDIAVEWESNGQPENNYKTTPPVLDSDGSFFLYSKLTVDKSRWQQGNVFSCSVMHEALHNHYTQESLSLSP light: DIQMTQSPSSLSASVGDRVTITCRASQDISSYLNWYQQKPGKAPKLLIYYTSRLHSGVPSRFSGSGSGTDFTFTISSLQPEDIATYYCQQGNTLPYTFGQGTKVEIK | 43 % of control | 368 % of control | 143 % of control | 175 % of control
IL6R-BP177/IL6R-L (antibody, human IgG1, IgG1; Fc variant of IL6R-B3; copies: 2 + 2) heavy: QVQLQESGPGLVKPSETLSLTCAVSGHSISHDHAWSWVRQPPGEGLEWIGFISYSGITNYNPSLQGRVTISRDNSKNTLYLQMNSLRAEDTAVYYCARSLARTTAMDYWGEGTLVTVSSASTKGPSVFPLAPSSKSTSGGTAALGCLVKDYFPEPVTVSWNSGALTSGVHTFPAVLQSSGLYSLSSVVTVPSSSLGTQTYICNVNHKPSNTKVDKKVEPKSCDKTHTCPPCPAPDYLGDDSVFLFPPKPKDTLMISRTPEVTCVVVDVSHEDGEVKFNWYVDGVEVHNAKTKPREEQYNSTYRVVSVLTVLHQDWLNGKEYKCKVSNDALPKPIEKTISKAKGQPREPQVYTLPPSRDELTKNQVSLTCLVKGFYPSDIAVEWESNGQPENNYKTTPPVLDSDGSFFLYSKLTVDKSRWQQGNVFSCSVMHEALHNHYTQESLSLSP light: DIQMTQSPSSLSASVGDRVTITCRASQDISSYLNWYQQKPGKAPKLLIYYTSRLHSGVPSRFSGSGSGTDFTFTISSLQPEDIATYYCQQGNTLPYTFGQGTKVEIK | 57 % of control | 409 % of control | 186 % of control | 177 % of control
IL6R-BP185/IL6R-L (antibody, human IgG1, IgG1; Fc variant of IL6R-B3; copies: 2 + 2) heavy: QVQLQESGPGLVKPSETLSLTCAVSGHSISHDHAWSWVRQPPGEGLEWIGFISYSGITNYNPSLQGRVTISRDNSKNTLYLQMNSLRAEDTAVYYCARSLARTTAMDYWGEGTLVTVSSASTKGPSVFPLAPSSKSTSGGTAALGCLVKDYFPEPVTVSWNSGALTSGVHTFPAVLQSSGLYSLSSVVTVPSSSLGTQTYICNVNHKPSNTKVDKKVEPKSCDKTHTCPPCPAPDYLGDDSVFLFPPKPKDTLMISRTPEVTCVVVDVSHEDGEVKFNWYVDGVEVHNAKTKPREEQYNSTYRVVSVLTVLHQDWLNGKEYKCKVSNAALPKPIEKTISKAKGQPREPQVYTLPPSRDELTKNQVSLTCLVKGFYPSDIAVEWESNGQPENNYKTTPPVLDSDGSFFLYSKLTVDKSRWQQGNVFSCSVMHEALHNHYTQESLSLSP light: DIQMTQSPSSLSASVGDRVTITCRASQDISSYLNWYQQKPGKAPKLLIYYTSRLHSGVPSRFSGSGSGTDFTFTISSLQPEDIATYYCQQGNTLPYTFGQGTKVEIK | 47 % of control | 446 % of control | 191 % of control | 179 % of control
IL6R-BP180/IL6R-L (antibody, human IgG1, IgG1; Fc variant of IL6R-B3; copies: 2 + 2) heavy: QVQLQESGPGLVKPSETLSLTCAVSGHSISHDHAWSWVRQPPGEGLEWIGFISYSGITNYNPSLQGRVTISRDNSKNTLYLQMNSLRAEDTAVYYCARSLARTTAMDYWGEGTLVTVSSASTKGPSVFPLAPSSKSTSGGTAALGCLVKDYFPEPVTVSWNSGALTSGVHTFPAVLQSSGLYSLSSVVTVPSSSLGTQTYICNVNHKPSNTKVDKKVEPKSCDKTHTCPPCPAPELLGDDSVFLFPPKPKDTLMISRTPEVTCVVVDVSHEDGEVKFNWYVDGVEVHNAKTKPREEQYNSTYRVVSVLTVLHQDWLNGKEYKCKVSNKALPKPIEKTISKAKGQPREPQVYTLPPSRDELTKNQVSLTCLVKGFYPSDIAVEWESNGQPENNYKTTPPVLDSDGSFFLYSKLTVDKSRWQQGNVFSCSVMHEALHNHYTQESLSLSP light: DIQMTQSPSSLSASVGDRVTITCRASQDISSYLNWYQQKPGKAPKLLIYYTSRLHSGVPSRFSGSGSGTDFTFTISSLQPEDIATYYCQQGNTLPYTFGQGTKVEIK | 29 % of control | 203 % of control | 100 % of control | 179 % of control
